Laboratory results from paper PMC10786891, “Massively parallel profiling of RNA-targeting CRISPR-Cas13d”.

T1: EsCas13d, nuclease-dead (Eubacterium siraeum, UniProt B0MS50, R295A;H300A;R849A;H854A)
T1 sequence: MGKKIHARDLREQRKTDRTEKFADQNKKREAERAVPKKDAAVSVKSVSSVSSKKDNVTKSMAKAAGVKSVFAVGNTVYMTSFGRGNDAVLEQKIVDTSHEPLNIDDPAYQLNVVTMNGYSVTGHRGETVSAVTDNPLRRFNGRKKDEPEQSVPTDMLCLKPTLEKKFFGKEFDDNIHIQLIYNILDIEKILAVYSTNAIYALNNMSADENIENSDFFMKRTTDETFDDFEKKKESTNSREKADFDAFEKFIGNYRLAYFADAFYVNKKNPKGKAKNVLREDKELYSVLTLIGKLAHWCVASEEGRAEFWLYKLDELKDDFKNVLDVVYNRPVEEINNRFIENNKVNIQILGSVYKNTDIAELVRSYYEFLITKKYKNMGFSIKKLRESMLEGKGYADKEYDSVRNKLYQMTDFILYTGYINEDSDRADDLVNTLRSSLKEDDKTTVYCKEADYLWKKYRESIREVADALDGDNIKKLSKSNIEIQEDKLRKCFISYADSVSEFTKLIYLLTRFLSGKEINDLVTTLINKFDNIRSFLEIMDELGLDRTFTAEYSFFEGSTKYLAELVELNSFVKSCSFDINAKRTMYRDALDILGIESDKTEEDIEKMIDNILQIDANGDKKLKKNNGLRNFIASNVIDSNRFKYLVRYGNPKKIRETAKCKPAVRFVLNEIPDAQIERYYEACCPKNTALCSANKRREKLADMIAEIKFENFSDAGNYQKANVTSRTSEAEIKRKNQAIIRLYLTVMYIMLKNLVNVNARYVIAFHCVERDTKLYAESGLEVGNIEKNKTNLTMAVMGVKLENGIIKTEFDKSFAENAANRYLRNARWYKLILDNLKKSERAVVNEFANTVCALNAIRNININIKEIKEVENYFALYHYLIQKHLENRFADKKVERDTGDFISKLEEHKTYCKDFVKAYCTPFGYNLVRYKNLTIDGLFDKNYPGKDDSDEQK


Biological target: T1, EsCas13d, nuclease-dead
Experiment: crRNA (strand 1, pre-loaded); Mg2+; 40 mM Tris-HCl pH 7.5, 150 mM NaCl, 6 mM MgCl2, 1 mM DTT, 0.1% Tween-20, 0.2 mg/ml BSA; 25 C; 10 min per concentration, then washed
Settings: tags: His6-TwinStrep-SUMO cleaved; N-terminal SNAP kept (SNAP-Surface 488); label: 3' end held by stalled T7 RNA polymerase

Row | Binder | Kd
1 | target 1 MT 5'PFS ACA 3'PFS AGA (mixed) RNA 1: CACCCGUGCAAAAAUGCAGGGGUCUAAAACUGAGCGGAUAACCUCUCUAUGG RNA 2: GGGAAUGGAUCCACAUCUACGAAUUCACACCAUAGAGAGGUUAUCCGCUCAAGAAGAUCGGAAGAGCACACGU | 66.5 ± 24 nM
2 | target 1 MT 5'PFS GCC 3'PFS AUA (mixed) RNA 1: CACCCGUGCAAAAAUGCAGGGGUCUAAAACUGAGCGGAUAACCUCUCUAUGG RNA 2: GGGAAUGGAUCCACAUCUACGAAUUCGCCCCAUAGAGAGGUUAUCCGCUCAAUAAGAUCGGAAGAGCACACGU | 13.8 ± 2.4 nM
3 | target 1 MT 5'PFS AAG 3'PFS CAG (mixed) RNA 1: CACCCGUGCAAAAAUGCAGGGGUCUAAAACUGAGCGGAUAACCUCUCUAUGG RNA 2: GGGAAUGGAUCCACAUCUACGAAUUCAAGCCAUAGAGAGGUUAUCCGCUCACAGAGAUCGGAAGAGCACACGU | ~37.5 nM
4 | target 1 MT 5'PFS GUA 3'PFS GCC (mixed) RNA 1: CACCCGUGCAAAAAUGCAGGGGUCUAAAACUGAGCGGAUAACCUCUCUAUGG RNA 2: GGGAAUGGAUCCACAUCUACGAAUUCGUACCAUAGAGAGGUUAUCCGCUCAGCCAGAUCGGAAGAGCACACGU | 8.5 ± 1 nM
5 | target 1 MT 5'PFS GCA 3'PFS AAA (mixed) RNA 1: CACCCGUGCAAAAAUGCAGGGGUCUAAAACUGAGCGGAUAACCUCUCUAUGG RNA 2: GGGAAUGGAUCCACAUCUACGAAUUCGCACCAUAGAGAGGUUAUCCGCUCAAAAAGAUCGGAAGAGCACACGU | 31.5 ± 7.5 nM
6 | target 1 MT 5'PFS CAU 3'PFS CCG (mixed) RNA 1: CACCCGUGCAAAAAUGCAGGGGUCUAAAACUGAGCGGAUAACCUCUCUAUGG RNA 2: GGGAAUGGAUCCACAUCUACGAAUUCCAUCCAUAGAGAGGUUAUCCGCUCACCGAGAUCGGAAGAGCACACGU | 23 ± 8.5 nM
7 | target 1 MT 5'PFS AAG 3'PFS CAA (mixed) RNA 1: CACCCGUGCAAAAAUGCAGGGGUCUAAAACUGAGCGGAUAACCUCUCUAUGG RNA 2: GGGAAUGGAUCCACAUCUACGAAUUCAAGCCAUAGAGAGGUUAUCCGCUCACAAAGAUCGGAAGAGCACACGU | 59 ± 29.5 nM
8 | target 1 MT 5'PFS GUA 3'PFS GUA (mixed) RNA 1: CACCCGUGCAAAAAUGCAGGGGUCUAAAACUGAGCGGAUAACCUCUCUAUGG RNA 2: GGGAAUGGAUCCACAUCUACGAAUUCGUACCAUAGAGAGGUUAUCCGCUCAGUAAGAUCGGAAGAGCACACGU | 12.1 ± 1.5 nM
9 | target 1 MT 5'PFS CAG 3'PFS CCC (mixed) RNA 1: CACCCGUGCAAAAAUGCAGGGGUCUAAAACUGAGCGGAUAACCUCUCUAUGG RNA 2: GGGAAUGGAUCCACAUCUACGAAUUCCAGCCAUAGAGAGGUUAUCCGCUCACCCAGAUCGGAAGAGCACACGU | ~49 nM
10 | target 1 MT 5'PFS GCA 3'PFS AAU (mixed) RNA 1: CACCCGUGCAAAAAUGCAGGGGUCUAAAACUGAGCGGAUAACCUCUCUAUGG RNA 2: GGGAAUGGAUCCACAUCUACGAAUUCGCACCAUAGAGAGGUUAUCCGCUCAAAUAGAUCGGAAGAGCACACGU | 41.5 ± 10 nM
11 | target 1 MT 5'PFS CUA 3'PFS CCG (mixed) RNA 1: CACCCGUGCAAAAAUGCAGGGGUCUAAAACUGAGCGGAUAACCUCUCUAUGG RNA 2: GGGAAUGGAUCCACAUCUACGAAUUCCUACCAUAGAGAGGUUAUCCGCUCACCGAGAUCGGAAGAGCACACGU | 5.05 ± 1.7 nM
12 | target 1 A1C,G17C (mixed) RNA 1: CACCCGUGCAAAAAUGCAGGGGUCUAAAACUGAGCGGAUAACCUCUCUAUGG RNA 2: GGGAAUGGAUCCACAUCUACGAAUUCGUACCAUACAGAGGUUAUCCGCUCCCCGAGAUCGGAAGAGCACACGU | 54 ± 15 nM
13 | target 1 MT 5'PFS GUA 3'PFS GCA (mixed) RNA 1: CACCCGUGCAAAAAUGCAGGGGUCUAAAACUGAGCGGAUAACCUCUCUAUGG RNA 2: GGGAAUGGAUCCACAUCUACGAAUUCGUACCAUAGAGAGGUUAUCCGCUCAGCAAGAUCGGAAGAGCACACGU | 13.8 ± 1.4 nM
14 | target 1 MT 5'PFS AAG 3'PFS CAC (mixed) RNA 1: CACCCGUGCAAAAAUGCAGGGGUCUAAAACUGAGCGGAUAACCUCUCUAUGG RNA 2: GGGAAUGGAUCCACAUCUACGAAUUCAAGCCAUAGAGAGGUUAUCCGCUCACACAGAUCGGAAGAGCACACGU | ~50.5 nM
15 | target 1 MT 5'PFS GCA 3'PFS AAC (mixed) RNA 1: CACCCGUGCAAAAAUGCAGGGGUCUAAAACUGAGCGGAUAACCUCUCUAUGG RNA 2: GGGAAUGGAUCCACAUCUACGAAUUCGCACCAUAGAGAGGUUAUCCGCUCAAACAGAUCGGAAGAGCACACGU | 24 ± 6 nM
16 | target 1 MT 5'PFS GCC 3'PFS AUG (mixed) RNA 1: CACCCGUGCAAAAAUGCAGGGGUCUAAAACUGAGCGGAUAACCUCUCUAUGG RNA 2: GGGAAUGGAUCCACAUCUACGAAUUCGCCCCAUAGAGAGGUUAUCCGCUCAAUGAGAUCGGAAGAGCACACGU | 16.5 ± 6 nM
17 | target 1 MT 5'PFS GCC 3'PFS AUC (mixed) RNA 1: CACCCGUGCAAAAAUGCAGGGGUCUAAAACUGAGCGGAUAACCUCUCUAUGG RNA 2: GGGAAUGGAUCCACAUCUACGAAUUCGCCCCAUAGAGAGGUUAUCCGCUCAAUCAGAUCGGAAGAGCACACGU | 32 ± 11 nM
18 | target 1 MT 5'PFS GUA 3'PFS GCU (mixed) RNA 1: CACCCGUGCAAAAAUGCAGGGGUCUAAAACUGAGCGGAUAACCUCUCUAUGG RNA 2: GGGAAUGGAUCCACAUCUACGAAUUCGUACCAUAGAGAGGUUAUCCGCUCAGCUAGAUCGGAAGAGCACACGU | 4.18 ± 0.37 nM
19 | target 1 A9U,C21U (mixed) RNA 1: CACCCGUGCAAAAAUGCAGGGGUCUAAAACUGAGCGGAUAACCUCUCUAUGG RNA 2: GGGAAUGGAUCCACAUCUACGAAUUCGUACUAUAGAGAGGUUUUCCGCUCACCGAGAUCGGAAGAGCACACGU | 8.7 ± 0.8 nM
20 | target 1 insA 3' of 17,insA 3' of 6 (mixed) RNA 1: CACCCGUGCAAAAAUGCAGGGGUCUAAAACUGAGCGGAUAACCUCUCUAUGG RNA 2: GGGAAUGGAUCCACAUCUACGAAUUCGUACCAUAGAAGAGGUUAUCCAGCUCACCGAGAUCGGAAGAGCACACGU | 18.3 ± 1.4 nM
21 | target 1 MT 5'PFS GUA 3'PFS GCG (mixed) RNA 1: CACCCGUGCAAAAAUGCAGGGGUCUAAAACUGAGCGGAUAACCUCUCUAUGG RNA 2: GGGAAUGGAUCCACAUCUACGAAUUCGUACCAUAGAGAGGUUAUCCGCUCAGCGAGAUCGGAAGAGCACACGU | 7.29 ± 0.49 nM
22 | target 1 MT 5'PFS GCA 3'PFS AAG (mixed) RNA 1: CACCCGUGCAAAAAUGCAGGGGUCUAAAACUGAGCGGAUAACCUCUCUAUGG RNA 2: GGGAAUGGAUCCACAUCUACGAAUUCGCACCAUAGAGAGGUUAUCCGCUCAAAGAGAUCGGAAGAGCACACGU | 32.5 ± 8 nM
23 | target 1 MT 5'PFS AAG 3'PFS CAU (mixed) RNA 1: CACCCGUGCAAAAAUGCAGGGGUCUAAAACUGAGCGGAUAACCUCUCUAUGG RNA 2: GGGAAUGGAUCCACAUCUACGAAUUCAAGCCAUAGAGAGGUUAUCCGCUCACAUAGAUCGGAAGAGCACACGU | 23 ± 10.5 nM
24 | target 1 MT 5'PFS GCC 3'PFS AUU (mixed) RNA 1: CACCCGUGCAAAAAUGCAGGGGUCUAAAACUGAGCGGAUAACCUCUCUAUGG RNA 2: GGGAAUGGAUCCACAUCUACGAAUUCGCCCCAUAGAGAGGUUAUCCGCUCAAUUAGAUCGGAAGAGCACACGU | 16.9 ± 4.1 nM
